Reference: publication PMC8184850, “Cryo-EM structure of TFIIH/Rad4–Rad23–Rad33 in damaged DNA opening in nucleotide excision repair” (Nature Communications, 2021)

Experiments:
Conditions in all cases: both partners purified
Rad4 = target: T1, Rad4 (yeast, UniProt P14736 1-754); assay: cryo-EM structure; coreTFIIH and Rad4–Rad23–Rad33 on −24*/+24 AAF-DNA with ATP, glycerol gradient with glutaraldehyde; Map 1 3.86 Å (TFIIH), Map 2 9.2 Å, Map 3 7.9 Å; Rad4, Rad33 and the Tfb1 PH domain placed by rigid-body docking of known structures or homology models
T1 construct: Rad4 (XPC homologue), yeast; Stood in the assays as part of Rad4–Rad23–Rad33; written alone for the contacts of the subunit; also called yeast homologue of XPC; source: Hi5 insect cells, co-expressed with Rad23, purified as the Rad4–Rad23 complex
T1 sequence (looked up): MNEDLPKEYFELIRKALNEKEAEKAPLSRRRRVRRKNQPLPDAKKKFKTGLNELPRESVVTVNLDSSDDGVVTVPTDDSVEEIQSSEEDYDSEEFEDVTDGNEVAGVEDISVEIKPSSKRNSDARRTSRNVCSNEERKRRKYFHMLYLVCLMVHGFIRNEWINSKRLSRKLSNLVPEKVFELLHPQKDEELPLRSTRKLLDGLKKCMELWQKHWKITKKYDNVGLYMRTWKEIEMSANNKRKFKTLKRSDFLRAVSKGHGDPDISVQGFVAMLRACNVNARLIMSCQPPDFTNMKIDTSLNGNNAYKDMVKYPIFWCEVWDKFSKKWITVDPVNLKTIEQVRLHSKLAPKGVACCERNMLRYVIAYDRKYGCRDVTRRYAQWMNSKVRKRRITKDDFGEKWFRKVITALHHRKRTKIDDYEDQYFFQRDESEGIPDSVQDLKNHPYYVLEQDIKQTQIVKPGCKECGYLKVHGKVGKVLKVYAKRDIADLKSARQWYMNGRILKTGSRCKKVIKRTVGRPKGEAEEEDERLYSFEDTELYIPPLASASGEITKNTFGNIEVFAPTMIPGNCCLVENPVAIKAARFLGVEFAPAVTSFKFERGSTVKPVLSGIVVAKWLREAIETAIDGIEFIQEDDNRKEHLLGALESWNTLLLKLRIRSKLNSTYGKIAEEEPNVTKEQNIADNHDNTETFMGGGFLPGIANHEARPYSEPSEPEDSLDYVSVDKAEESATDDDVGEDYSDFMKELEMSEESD

Rad3 = target: T2, Rad3 (yeast, UniProt P06839 1-778); assay: as above
T2 construct: Rad3 (XPD homologue), subunit of yeast coreTFIIH; Stood in the assays as part of coreTFIIH; also called yeast homologue of XPD; source: purified from yeast as a subunit of coreTFIIH
T2 sequence (looked up): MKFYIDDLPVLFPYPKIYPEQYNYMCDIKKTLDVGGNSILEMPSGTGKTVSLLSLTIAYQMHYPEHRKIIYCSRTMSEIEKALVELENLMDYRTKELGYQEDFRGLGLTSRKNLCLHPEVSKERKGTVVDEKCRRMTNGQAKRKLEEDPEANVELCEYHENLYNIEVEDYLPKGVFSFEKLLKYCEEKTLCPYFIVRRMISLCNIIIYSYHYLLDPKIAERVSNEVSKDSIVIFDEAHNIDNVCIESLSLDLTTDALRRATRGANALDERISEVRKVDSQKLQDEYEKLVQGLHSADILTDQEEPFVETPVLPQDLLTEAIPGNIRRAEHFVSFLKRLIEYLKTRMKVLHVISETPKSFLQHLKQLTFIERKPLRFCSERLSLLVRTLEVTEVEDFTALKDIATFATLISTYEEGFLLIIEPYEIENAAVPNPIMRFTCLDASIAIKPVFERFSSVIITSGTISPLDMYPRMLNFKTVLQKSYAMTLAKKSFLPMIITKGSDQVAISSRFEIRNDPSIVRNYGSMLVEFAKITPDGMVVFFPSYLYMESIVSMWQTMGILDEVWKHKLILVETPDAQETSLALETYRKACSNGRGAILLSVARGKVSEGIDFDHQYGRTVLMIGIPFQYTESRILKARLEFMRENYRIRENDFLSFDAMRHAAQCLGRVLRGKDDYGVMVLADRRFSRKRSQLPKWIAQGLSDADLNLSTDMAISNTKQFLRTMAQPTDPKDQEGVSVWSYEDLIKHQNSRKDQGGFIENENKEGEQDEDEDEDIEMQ

Rad4–Rad23–Rad33 complex = target: T3, Rad4–Rad23–Rad33 complex (yeast, UniProt P14736 1-754; P32628 1-398; Q04231 1-177); assay: cross-linking; XL-MS: TFIIH/Rad4–Rad23–Rad33 assembled on −24/+24 AAF-DNA, 1 mg/mL in 20 mM HEPES pH 7.6, 300 mM potassium acetate, 5% glycerol, 5 mM DTT; 6 mM DSBU on ice 2 h; MeroX, FDR <1%
T3 construct: Rad4 (XPC homologue), yeast; Rad23 (RAD23B homologue), yeast; Rad33 (CETN2 homologue), yeast; plasmid pETDuet-RAD33; also called Rad4–23–33; yeast homologue of XPC–RAD23B–CETN2; copies: + +
T3 sequence 1: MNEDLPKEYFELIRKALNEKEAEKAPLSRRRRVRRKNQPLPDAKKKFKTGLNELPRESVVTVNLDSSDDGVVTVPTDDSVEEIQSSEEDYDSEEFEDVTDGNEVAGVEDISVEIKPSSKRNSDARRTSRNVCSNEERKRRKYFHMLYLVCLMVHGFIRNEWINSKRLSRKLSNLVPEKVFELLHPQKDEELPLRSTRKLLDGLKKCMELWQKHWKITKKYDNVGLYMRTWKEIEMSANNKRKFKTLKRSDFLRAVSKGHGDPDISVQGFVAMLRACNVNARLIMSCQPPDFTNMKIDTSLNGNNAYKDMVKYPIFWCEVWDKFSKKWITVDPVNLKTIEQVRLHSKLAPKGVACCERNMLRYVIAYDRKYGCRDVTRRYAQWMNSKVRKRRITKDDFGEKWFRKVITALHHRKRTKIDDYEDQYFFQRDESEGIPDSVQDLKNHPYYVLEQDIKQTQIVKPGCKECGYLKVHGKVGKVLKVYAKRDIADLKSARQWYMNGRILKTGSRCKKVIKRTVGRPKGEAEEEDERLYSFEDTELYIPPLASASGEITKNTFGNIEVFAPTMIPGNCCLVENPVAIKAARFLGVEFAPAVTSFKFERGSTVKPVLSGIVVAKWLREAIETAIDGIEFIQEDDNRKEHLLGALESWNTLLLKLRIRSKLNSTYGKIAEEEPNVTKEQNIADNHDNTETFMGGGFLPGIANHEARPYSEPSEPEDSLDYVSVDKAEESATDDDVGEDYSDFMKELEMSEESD
T3 sequence 2: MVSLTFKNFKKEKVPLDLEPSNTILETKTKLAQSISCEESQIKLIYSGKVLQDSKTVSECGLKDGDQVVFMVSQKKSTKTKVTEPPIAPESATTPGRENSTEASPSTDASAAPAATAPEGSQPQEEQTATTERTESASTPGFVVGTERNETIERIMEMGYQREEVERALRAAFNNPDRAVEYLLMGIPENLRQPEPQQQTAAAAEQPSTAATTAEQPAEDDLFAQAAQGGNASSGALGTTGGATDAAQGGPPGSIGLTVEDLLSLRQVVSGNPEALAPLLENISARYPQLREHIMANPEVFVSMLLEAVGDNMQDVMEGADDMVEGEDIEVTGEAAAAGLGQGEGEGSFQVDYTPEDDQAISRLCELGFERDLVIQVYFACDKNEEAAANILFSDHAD
T3 sequence 3: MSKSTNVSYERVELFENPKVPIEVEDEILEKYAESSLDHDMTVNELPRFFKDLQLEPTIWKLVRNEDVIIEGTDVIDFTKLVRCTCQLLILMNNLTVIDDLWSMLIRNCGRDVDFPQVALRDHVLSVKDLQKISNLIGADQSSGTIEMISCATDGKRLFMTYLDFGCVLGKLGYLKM

binding result (Rad4): binds
binding result (Rad3): binds
binding result (Rad4–Rad23–Rad33 complex): binds
B1: Tfb1 (natural protein, yeast, UniProt P32776 1-642, looked up)
chain: MSHSGAAIFEKVSGIIAINEDVSPAELTWRSTDGDKVHTVVLSTIDKLQATPASSEKMMLRLIGKVDESKKRKDNEGNEVVPKPQRHMFSFNNRTVMDNIKMTLQQIISRYKDADIYEEKRRREESAQHTETPMSSSSVTAGTPTPHLDTPQLNNGAPLINTAKLDDSLSKEKLLTNLKLQQSLLKGNKVLMKVFQETVINAGLPPSEFWSTRIPLLRAFALSTSQKVGPYNVLSTIKPVASSENKVNVNLSREKILNIFENYPIVKKAYTDNVPKNFKEPEFWARFFSSKLFRKLRGEKIMQNDRGDVIIDRYLTLDQEFDRKDDDMLLHPVKKIIDLDGNIQDDPVVRGNRPDFTMQPGVDINGNSDGTVDILKGMNRLSEKMIMALKNEYSRTNLQNKSNITNDEEDEDNDERNELKIDDLNESYKTNYAIIHLKRNAHEKTTDNDAKSSADSIKNADLKVSNQQMLQQLSLVMDNLINKLDLNQVVPNNEVSNKINKRVITAIKINAKQAKHNNVNSALGSFVDNTSQANELEVKSTLPIDLLESCRMLHTTCCEFLKHFYIHFQSGEQKQASTVKKLYNHLKDCIEKLNELFQDVLNGDGESMSNTCTAYLKPVLNSITLATHKYDEYFNEYNNNSN
notes: Tfb1 (p62 homologue), subunit of yeast coreTFIIH; Stood in the assays as part of coreTFIIH; also called yeast homologue of p62; source: purified from yeast as a subunit of coreTFIIH
